In the DeepSol protein solubility set:

Assay: soluble on expression in E. coli; label from the status in PepcDB or PDB records

Row | Sequence | soluble on expression in E. coli
1 | ANATKNTPSEDQQLANIIETHEAFYLKSSPFNQPEVIGNNAKLPDLSADFLLAQYQQGLAIYQQLIALDNEKLTQENQINFSVLTYSLKNQLDSYINKEHYMPLTAESGFHVWIANISKQVDFKTFTDYQDYLVRLSLLPAYFSQQTYWMKKGLKSGISQPKIVLKGFEQSIAAYIKEDVTESSYYQPFNKMSAFITTSQKKDLQQQAKQVLSTKVMPAYTAYYDFMVNVYQPNARDNIAAISLPNGKEYYQNRLVHYTTLPMTATEVHQQGVGEVKRIRVEMNAIIEQVNFDGSFSEFVEFLRTDPQFYASTPTELLKEASFIAKKMDAKLPRLFKTLPRTPYGVMAVPANIAPKYTTGRYAGSSRDDQPGNYWVNTYRLDRRPLYVLTALTLHEAVPGHHLQISLAKEMKDVAKFRNRSYISAFGEGWGLYSEYLGIEAGMYEDPYHNFGRLTYEMWRACRLVVDTGMHTQGWSREQAMDFLASNTALSLHNVKTEIDRYISWPGQALSYKIGELTIKRLRKEAEQTLGEDFDLREFHDQILKHGSMPLSMLDKIITQYINDKDNSVTK | not soluble
2 | APAILLVDDEPHSLAAMKLALEDDFDVLTAQGAEAAIAILEEEWVQVIICDQRMPGRTGVDFLTEVRERWPETVRIIITGYTDSASMMAAINDAGIHQFLTKPWHPEQLLSSARNAARMFTLARENERLSLEMRLLERP | soluble
3 | ARKCSLTGKWTNNLGSIMTIRAVNSRGEFTGTYLTAVADNPGNITLSPLLGIQHKRASQPTFGFTVHWNFSESTTVFTGQCFIDRNGKEVLKTMWLLRSSVNDISYDWIATRVGYNNFTRLSTVEE | soluble
4 | ASDRQLGPPRMCEPSPREQLMESIRKGKELKQITPPEA | soluble
5 | ASFIEQQVGGSLNEASLAHHIEQVLATNGNLFIGNSLFVRLVDALCKLPEGYPVYTNRGASGIDGLIATMAGIAKASGQPTVGVVGDISALHDLNSISLLSKINHPSILFVINNSGGAIFDMLPVEARVKEQFYRLSHNYEFSQVAAMFGIEYIRPFTWADLKAKLKLAYGRKSATIVEIKVNDQDG | not soluble
6 | ASSNANQAITSENSIKPKGKLQPQMEKYTLTYFNGRGRAEVIRLLFALANVSYEDNRITRDEWKYLKPRTPFGHVPMLNVSGNVLGESHAIELLLGGRFGLLGTNDWEEAKIMAVVLNIDELFQKLIPWTHEKNTTKKAELFRNLSESDVMPFLGRYEKFLKESTTGHIVGNKVSVADLTVFNMLMTLDDEVKLEEYPQLASFVNKIGQMPGIKEWIKKRPKTYF | soluble
7 | ATAAQAERTLPKKYGGRFTVTLIPGDGVGKEITDSVRTIFEAENIPIDWETINIKQTDHKEGVYEAVESLKRNKIGLKGLWHTPADQTGHGSLNVALRKQLDIYANVALFKSLKGVKTRIPDIDLIVIRENTEGEFSGLEHESVPGVVESLKVMTRPKTERIARFAFDFAKKYNRKSVTAVHKANIMKLGDGLFRNIITEIGQKEYPDIDVSSIIVDNASMQAVAKPHQFDVLVTPSMYGTILGNIGAALIGGPGLVAGANFGRDYAVFEPGSRHVGLDIKGQNVANPTAMILSSTLMLNHLGLNEYATRISKAVHETIAEGKHTTRDIGGSSSTTDFTNEIINKLSTMHHHHH | soluble
8 | ATATAYVRSCDGASPPTPPGCGLKLVVDLTLDDSILTGSVLETEVMVTHALHESLFPRDAASDAAGTAATSLQVSLPPITVAMRRGAVQMRYGLTYLRTFPAALRDSVRVLKTAMSCDDGVTRCPSYMSMTGTLVSAPLGLCCLCTSVECALTSDLCNASMRAHFCFRTGAAGITCVQSEGITYHGWAVGSSSPYYMMHLSASGRGIAPTTLQLTTDAPEVQKGASALQILRASGVLPGESNPTVDISGRVLFVPSAEHSSASRSISTGPVRDDDPAEWLLLPAPLVSVSGNDCDKVGISPDYFYSLSSTKQCNAQKGTCVRHQLADYRAADLEQIAQGVGGRYIAASLGTFTRQAMREQEFLLDAVERTGGAMLRWTVNADGLVFQPLPVHGVLDAIKFDSSTGILYVTVRNNNTYGGLYYVAVGQCRGARASNCDSDGVTHECGRTALVAGANTSSLLQFSMVSDLPEEVGSTASCTVVFRDAAAALLASANISWTVEHTTTTPAPNAPKAEQCRRCAFRDLRCLFSTV | not soluble
9 | ATHYSVADRWGNAVSVTYTINASYGSAASIDGAGFLLNNEMDDFSIKPGNPNLYGLVGGDANAIEANKRPLSSMSPTIVLKNNKVFLVVGSPGGSRIITTVLQVISNVIDYNMNISEAVSAPRFHMQWLPDELRIEKFGMPADVKDNLTKMGYQIVTKPVMGDVNAIQVLPKTKGSVFYGSTDPRKEF | soluble
10 | ATMTLTDANFQQAIQGDGPVLVDFWAAWCGPCRMMAPVLEEFAEAHADKVTVAKLNVDENPETTSQFGIMSIPTLILFKGGEPVKQLIGYQPKEQLEAQLADVLQ | soluble
11 | ATTPSANQNWRLLRDESAQLRIADVLQRKEQFRPLAKRSFIFPASPQAVWLQVQLPAQKVPSWLWIFAPRVQYLDYYLVQDGQLVRDQHTGESRPFQERPLPSRSYLFSLPVDGKPMTLYVRMTSNHPLMAWFDQIDEAGLVGLE | soluble
12 | ATVKQPSIGRYTGKPNPSTGKYTVSFIEGDGIGPEISKSVKKIFSAANVPIEWESCDVSPIFVNGLTTIPDPAVQSITKNLVALKGPLATPIGKGHRSLNLTLRKTFGLFANVRPAKSIEGFKTTYENVDLVLIRENTEGEYSGIEHIVCPGVVQSIKLITRDASERVIRYAFEYARAIGRPRVIVVHKSTIQRLADGLFVNVAKELSKEYPDLTLETELIDNSVLKVVTNPSAYTDAVSVCPNLYGDILSDLNSGLSAGSLGLTPSANIGHKISIFEAVHGSAPDIAGQDKANPTALLLSSVMMLNHMGLTNHADQIQNAVLSTIASGPENRTGDLAGTATTSSFTEAVIKRL | soluble
13 | CFTPESTALLESGVRKPLGELSIGDRVLSMTANGQAVYSEVILFMDRNLEQMQNFVQLHTDGGAVLTVTPAHLVSVWQPESQKLTFVFADRIEEKNQVLVRDVETGELRPQRVVKVGSVRSKGVVAPLTREGTIVVNSVAASCYA | soluble
14 | CLKEGGDSNSEKFIVGTNATYPPFEFVDKRGEVVGFDIDLAREISNKLGKTLDVREFSFDALILNLKQHRIDAVITGMSITPSRLKEILMIPYYGEEIKHLVLVFKGENKHPLPLTQYRSVAVQTGTYQEAYLQSLSEVHIRSFDSTLEVLMEVMHGKSPVAVLEPSIAQVVLKDFPALSTATIDLPEDQWVLGYGIGVASDRPALALKIEAAVQEIRKEGVLAELEQKWGLNNLEHHHHHH | soluble
15 | CNFRSTETIVNWVNDHFSKIFSQQVDIESGAVSFHPSVHVIEKNESSTIQAVQFKNREQEARHLIEIINSELNRNPEQTIAVLVRTRTQLPEIISLLRQNNIPYQGTDIDLLANLVHLRDVWSLAHALLFPGNRLSWLSILHSPYVGLGLSDIHCIAQYNSRKSIYHNLLHLDKIQDISEEGRIRANFFIQIMNQALLCRSHSRLSDWIADTLKNLHVEKILDKAQLNDLEQLWMLLDQYEKEGRIPDMNEFLNEFNKLYAQQTTPSRLQIMTIHKSKGLEFDTVILPGLGSQANRGESPMLRWLKLPTQDHGNLLLVSPIKSANQDNCPLYDYLDQLDEEKSAYEAQRLLYVAVTRAKSRLYLLDHSAKSYKSS | not soluble
16 | DDFETSLTELEPLEKDAYIVRLVFAGSTTTEPIVSSLSTAYDIKINILEANIKNTKNGTVGFLVLHIPYISSVDFGKFEKELIERQVKMEVLRHG | soluble
17 | DEEDANFMQRAFEMNDKVASDVMVDRTSMSVVDVDETIADALLLYLEEQYSRFPVTADNDKDKIIGYAYNYDIVRQARIDDKAKISTIMRDIVSVPENMKVPDVMEEMSAHRVPMAIVIDEYGGTSGIITDKDVYEELFGNLRDEQDDED | soluble
18 | DFVHIMTPYLILDGELLHALKFAAERGVDVIIIMPGIPDKKSAYYLAKTYYPTLLASGVKIYEYTPGFIHAKVFVSDNSRAVVGTINLDYRSLYHHFECATYLYGTSSVLDIEEDFQATKDQCHRVSTTDVKNLPFYQKTLGLLARLVAP | not soluble
19 | DGSCTNTNSQLSANSKCEKSTLTNCYVDKSEVYGTTCTGSRFDGVTITTSTSTGSRISGPGCKISTCIITGGVPAPSAACKISGCTFSAN | soluble
20 | DIALTQPASVSGSPGQSITISCTGTSSDVGSNNYVSWYQQHPGKAPKLMIYGGSNRPSGVSNRFSGSKSGNTASLTISGLQAEDEADYYCRSWDSNLSYSVFGGGTKLTVLGQPKAAPSVTLFPPSSEELQANKATLVCLISDFYPGAVTVAWKADSSPVKAGVETTTPSKQSNNKYAASSYLSLTPEQWKSHRSYSCQVTHEGSTVEKTVAPTEA | soluble
21 | DIGCYTLGALPPFREQDSATNMGSSLGISNGVFRSTDQVPVAVIGDSTFFHSGIEGVANAVYNNTAEIIVVLDNRSTAMTGQQPSPSTAIDIGNVCRAMGIEYVETFDPFDVDAGEKAVQQAAEYVKKTLKPAVIIAKRACALEVLEKVDSETPKAYVDSNRCT | not soluble
22 | DIGCYTLGINKPLEGVDITICMGASVGVSNGLAHVLNNKIIATIGDSTFIHAGIPPLINAVYNHADFVLVILDNSTTGMTGHQPHPGTGFRGCGEAGKAVRIEDIVRGCGVEFVEVVNPYNVRKMVDVLRRALNHDGVAVVIARQPCAILWSRARRREGKIVTYKVTEDC | not soluble
23 | DIGVWEYFPATDSLDWSDGVRRIHGVADEYEPSLDDALGFYHPDDRDKISKAVEQTIADREPYDIDLRIVRTDGDVRDVRAWGERVDDPQ | not soluble
24 | DIQALALLEILDPIREGAAETLDYLRSQEVGLKIISGDNPVTVSSIAQKAGFADYHSYVDCSKITDEELMAMAEETAIFGRVSPHQKKLIIQTLKKAGHTTAMTGDGVNDILALREADCSIVMAEGDPATRQIANLVLLNSDFNDVPE | not soluble
25 | DIQMTQSPASLSASVGETVTITCRASGNIHNYLAWYQQKQGKSPQLLVYYTTTLADGVPSRFSGSGSGTQYSLKINSLQPEDFGSYYCQHFWSTPRTFGGGTKLEIKRADAAPTVSIFPPSSEQLTSGGASVVCFLNNFYPKDINVKWKIDGSERQNGVLNSWTDQDSKDSTYSMSSTLTLTKDEYERHNSYTCEATHKTSTSPIVKSFNRNEC | soluble
26 | DIQMTQSPSSLSASVGDRVTITCRTSGNIHNYLTWYQQKPGKAPQLLIYNAKTLADGVPSRFSGSGSGTQFTLTISSLQPEDFANYYCQHFWSLPFTFGQGTKVEIKRTGGGGSGGGGSGGGGSGGGGSEVQLVESGGGLVQPGGSLRLSCAASGFDFSRYDMSWVRQAPGKRLEWVAYISSGGGSTYFPDTVKGRFTISRDNAKNTLYLQMNSLRAEDTAVYYCARQNKKLTWFDYWGQGTLVTVSSHHHHHH | soluble
27 | DITERHAREQKLREERAVIQQALDALDEPLFVTDIDGRLKHCNHRALELTGNTEETAVGTPITALFPDEERETIADAVDDALRTGRTTITASLCLDSGQQQRYEFRAHSLTDLDNNTAGLVILGQDVS | not soluble
28 | DITGIPSGFNDLDQKTSGFQPGDLIIVAGRPSMGKTAFALNIGEHVALETSKPVAVFSMEMGGVQLAMRMLGSIGRLDQHKMRTGQLNDDDWPRLTHALGKLNDAPIFIDESAGLNSLELRARARRLYRQHEGLGLIIIDYLQLMSATSPGSENRAAEISEISRSLKALAKELQVPVIALSQLNRGLEQRPNKRPIMSDL | not soluble
